Experimental data published in patent US20260241018A1 (BIOCYTOGEN PHARMACEUTICALS BEIJING, published 2026).

Columns and labels:
[1] = target: T1, His-tagged 5T4 protein of human (h5T4, ACRO Biosystems Inc., Cat #: TPG-H52E5) (human, UniProt Q13641 32-355); assay: SPR (Biacore 8K), antibody captured on Protein A chip, His-tagged 5T4 as analyte
T1 construct: Bought protein; not shown: His tag
T1 sequence (looked up): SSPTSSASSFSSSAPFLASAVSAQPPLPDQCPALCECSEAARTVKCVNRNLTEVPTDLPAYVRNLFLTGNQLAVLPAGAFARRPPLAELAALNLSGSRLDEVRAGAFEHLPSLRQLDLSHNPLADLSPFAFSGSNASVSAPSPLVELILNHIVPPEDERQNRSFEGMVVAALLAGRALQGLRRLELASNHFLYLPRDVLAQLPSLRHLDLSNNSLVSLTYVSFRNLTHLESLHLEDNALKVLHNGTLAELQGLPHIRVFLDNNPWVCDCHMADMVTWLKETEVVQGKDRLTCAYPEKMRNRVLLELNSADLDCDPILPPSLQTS
Procedure: (§1) Purified anti-5T4 antibodies were diluted to 2 μg/mL and then injected into the Biacore™ 8K biosensor at 10 μL/min for about 50 seconds to achieve a desired protein density (e.g., about 50 response units (RU)). His-tagged 5T4 protein at a concentration of 200 nM was then injected at 30 μL/min for 180 seconds. Dissociation was monitored for 400 seconds. The chip was regenerated after the last injection of each titration with Glycine (pH 2.0), 30 μL/min for 30 seconds. For ISO control, an antibody targeting an irrelevant target protein was used.
(§2) As a person of ordinary skill in the art would understand, the same method with appropriate adjustments for parameters (e.g., antibody concentration) was performed for each tested antibody.

[2] = target: T2, His-tagged 5T4 protein of monkey (fas5T4, ACRO Biosystems Inc., Cat #: TPG-C52H3) (monkey, UniProt Q4R8Y9 35-355); assay: as above
T2 construct: Bought protein
T2 sequence: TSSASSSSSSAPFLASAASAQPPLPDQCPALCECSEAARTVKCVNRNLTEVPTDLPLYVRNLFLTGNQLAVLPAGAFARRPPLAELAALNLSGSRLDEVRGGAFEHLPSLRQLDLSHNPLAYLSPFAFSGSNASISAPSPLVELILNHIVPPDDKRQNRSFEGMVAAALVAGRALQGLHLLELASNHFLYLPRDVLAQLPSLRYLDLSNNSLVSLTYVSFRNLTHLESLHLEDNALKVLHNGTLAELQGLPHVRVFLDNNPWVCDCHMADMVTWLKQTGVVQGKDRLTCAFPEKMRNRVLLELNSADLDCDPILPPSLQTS
Procedure: as §1, §2

h5T4-His protein [3] = target: T3, h5T4-His protein (human, UniProt Q13641 32-355, limits assumed); assay: epitope binding assay, h5T4-His captured; binder = analyte 2; competitor (analyte 1): 35B12
T3 construct: also called His-tagged human 5T4 protein; not shown: His tag
T3 sequence (looked up): T1 sequence (looked up)
Procedure: (§3) Epitope binding assays were performed using ForteBio Octet system to determine whether two anti-5T4 antibodies target the same or overlapping epitopes. 1×HBS-EP+buffer (10 mM 4-(2-hydroxyethyl)-1-piperazineethanesulfonic acid (HEPES), 150 mM NaCl, 3 mM ethylenediaminetetraacetic acid (EDTA) and 0.05% P20, pH7.4) diluted from HBS-EP+buffer (10×) was used as the running buffer throughout the experiment. About 50 RU of h5T4-His protein was captured at a flow rate of 10 μL/min, and 200 nM of the tested antibody was injected at a flow rate of 30 μL/min to bind the ligand. Another comparison antibody was injected under the same conditions to determine whether the binding of different antibodies interfered with each other. The binding time was 180 s for each antibody.
(§4) The binding value of each antibody was obtained using Data Analysis HT 12.0. To quantify the interference of one antibody binding to another, a binding ratio was calculated to compare each pair of antibodies. The binding ratio is defined as the binding value of the second antibody (analyte 2), divided by the binding value of the first antibody (analyte 1). […] In general, antibody pairs that interfere with each other have the same or overlapping epitopes.

h5T4-His protein [4] = target: T3, h5T4-His protein; assay: epitope binding assay, h5T4-His captured; binder = analyte 2; competitor (analyte 1): 32E3
Procedure: as §3, §4

[5] = target: T4, 5T4 on NCI-H226 cells, NCI-H2030 cells and HCC827 cells (UniProt Q13641 32-420, limits assumed); assay: flow cytometry on HCC827 cells, Alexa Fluor 647 anti-human IgG Fc secondary antibody, MFI
T4 construct: whole, on cells
T4 sequence (looked up): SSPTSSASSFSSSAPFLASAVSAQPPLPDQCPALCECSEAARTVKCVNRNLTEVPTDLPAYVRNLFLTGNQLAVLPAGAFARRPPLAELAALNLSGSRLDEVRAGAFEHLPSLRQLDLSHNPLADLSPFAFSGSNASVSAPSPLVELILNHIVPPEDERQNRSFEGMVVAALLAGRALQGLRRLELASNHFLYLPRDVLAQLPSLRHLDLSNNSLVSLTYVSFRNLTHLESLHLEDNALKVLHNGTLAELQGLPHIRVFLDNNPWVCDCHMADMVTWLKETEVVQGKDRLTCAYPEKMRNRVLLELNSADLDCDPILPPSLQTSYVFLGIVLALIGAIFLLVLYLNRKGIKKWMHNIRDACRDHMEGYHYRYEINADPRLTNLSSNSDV
Procedure: (§5) NCI-H226 cells, NCI-H2030 cells or HCC827 cells were plated in a 96-well plate at a density of 2×10⁵ cells/well. Serially diluted purified anti-5T4 antibody 32G1 or the positive control PF06263507 analog-SI (maximum concentration: 20 μg/mL, 2-fold dilutions, 12 gradients) were added to each well and were incubated at 4° C. for 30 minutes. Then, after one wash with PBS, the cells were incubated with the secondary antibody Alexa Fluor® 647 anti human IgG Fcγ (Jackson ImmunoResearch Laboratories, Inc., Cat #: 109-606-170) at 4° C. for 15 minutes before flow cytometry analysis.
(§6) The cells were collected, and the mean fluorescence intensity (MFI) was determined.

h5T4-His protein [6] = target: T3, h5T4-His protein; assay: epitope binding assay, h5T4-His captured; binder = analyte 2; competitor (analyte 1): 31G4
Procedure: as §3, §4

[7] = target: T4, 5T4 on NCI-H226 cells, NCI-H2030 cells …; assay: flow cytometry on NCI-H226 cells, Alexa Fluor 647 anti-human IgG Fc secondary antibody, MFI
Procedure: as §5, §6

B1: 32G1 (antibody, V domains shown)
VH: QVQLVQSGGGLVKPGGSLRLSCVASGFTFSDYYMNWVRQAPGKGLEWISYVGTESIYTYYADTVKGRFTISRDNAKNSLYLQMNSLRAEDTALYYCARARDYNLYGMDVWGQGTTVTVSS
VL: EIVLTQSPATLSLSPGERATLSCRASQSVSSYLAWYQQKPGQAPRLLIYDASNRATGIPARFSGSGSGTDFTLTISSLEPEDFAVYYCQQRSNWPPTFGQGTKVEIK
notes: also called anti-5T4 antibody 32G1
[1]
  Kd: 368 nM
  koff: 0.0249 s⁻¹
  kon: 67700 M⁻¹ s⁻¹
[2]
  Kd: 70.1 nM
  koff: 12.3 s⁻¹
  kon: 1.75e+08 M⁻¹ s⁻¹
h5T4-His protein [3]
  binding ratio: -0.02
h5T4-His protein [4]
  binding ratio: 0.89
[5]
  EC50 (read off the curve): ~0.8 µg/mL
h5T4-His protein [6]
  binding ratio: 0.89
[7]
  EC50 (read off the curve): ~0.3 µg/mL
